From patent US20050278809A1

Assays:
[1] = target: GAL4 DB-HDA19 fusion (pDBLeu-HDA19), expressed in MaV203 yeast (yeast; Arabidopsis thaliana) (UniProt P04386); experiment: cell-based or functional assay
[2] = target: tobacco ortholog of the transcription repressor HDA19 (tobacco); experiment: cell-based or functional assay
[3] = scale: % further reduction relative to the other mutants
[4] = scale: % reduction relative to full-length bnKCP1

| Substance | β-galactosidase activity (lacZ reporter, yeast two-hybrid, CPRG) (% reduction relative to wild type BnSCL1) [1] | further results |
| --- | --- | --- |
| GAL4 AD-BnSCL1^1-145 fusion (pPC86-BnSCL1^1-145), expressed in MaV203 yeast | > 50 | β-galactosidase activity (lacZ reporter, yeast two-hybrid, CPRG) [1, 3]: > 50 |
| GAL4 AD-bnKCP1^1-160 fusion (pPC86-bnKCP1^1-160), expressed in MaV203 yeast (from UniProt Q84U09 1-160) | – | β-galactosidase activity (lacZ reporter, yeast two-hybrid, CPRG) [1, 4]: > 50 |
| GAL4 AD-BnSCL1^1-261 fusion (pPC86-BnSCL1^1-261), expressed in MaV203 yeast | > 50 | – |
| GAL4 AD-BnSCL1^1-217 fusion (pPC86-BnSCL1^1-217), expressed in MaV203 yeast | > 50 | – |
| GAL4 AD-BnSCL1^218-438 fusion (pPC86-BnSCL1^218-438), expressed in MaV203 yeast | > 50 | β-galactosidase activity (lacZ reporter, yeast two-hybrid, CPRG) [1, 3]: > 50 |
| GAL4BD-BnSCL1 fusion protein (effector plasmid GAL4-BnSCL1), expressed transiently in tobacco leaves (from UniProt P04386 1-147) | – | GUS gene expression (transient assay in bombarded tobacco leaves, fluorometric) [2]: 50 % decrease |
| GAL4 AD-BnSCL1^1-358 fusion (pPC86-BnSCL1^1-358), expressed in MaV203 yeast | > 50 | – |
| GAL4 AD-bnKCP1^1-80 fusion (pPC86-bnKCP1^1-80), expressed in MaV203 yeast (from UniProt Q84U09 1-80) | – | β-galactosidase activity (lacZ reporter, yeast two-hybrid, CPRG) [1, 4]: > 50 |
| GAL4 AD-BnSCL1^146-358 fusion (pPC86-BnSCL1^146-358), expressed in MaV203 yeast | > 50 | – |
